Results: patent US20240141007A1 (XILIO DEVELOPMENT, published 2024)
Substitutions are numbered along the chain they refer to.

B1: UCM75 (Fc fusion)
chain 1: DKTHTCPPCPAPELLGGPSVFLFPPKPKDTLMISRTPEVTCVVVDVSHEDPEVKFNWYVDGVEVHNAKTKPREEQYASTYRVVSVLTVLHQDWLNGKEYKCKVSNKALPAPIEKTISKAKGQPREPQVYTLPPCRDELTKNQVSLWCLVKGFYPSDIAVEWESNGQPENNYKTTPPVLDSDGSFFLYSKLTVDKSRWQQGNVFSCSVMHEALHNRFTQKSLSLSPGGSPG
chain 2: DKTHTCPPCPAPELLGGPSVFLFPPKPKDTLMISRTPEVTCVVVDVSHEDPEVKFNWYVDGVEVHNAKTKPREEQYASTYRVVSVLTVLHQDWLNGKEYKCKVSNKALPAPIEKTISKAKGQPREPQVCTLPPSRDELTKNQVSLSCAVKGFYPSDIAVEWESNGQPENNYKTTPPVLDSDGSFFLVSKLTVDKSRWQQGNVFSCSVMHEALHNHYTVPLSLYSGG
B2: UCM80 (Fc fusion)
chain 1: B1 chain 1
chain 2: B1 chain 2 with V218Q, L220V, Y223R, G226S
B3: UCM81 (Fc fusion)
chain 1: B1 chain 1
chain 2: B1 chain 2 with V218P, P219A, L220N, S221L, L222V, Y223A, S224P, G225D, G226P
B4: UCM76 (Fc fusion)
chain 1: DKTHTCPPCPAPELLGGPSVFLFPPKPKDTLMISRTPEVTCVVVDVSHEDPEVKFNWYVDGVEVHNAKTKPREEQYASTYRVVSVLTVLHQDWLNGKEYKCKVSNKALPAPIEKTISKAKGQPREPQVYTLPPCRDELTKNQVSLWCLVKGFYPSDIAVEWESNGQPENNYKTTPPVLDSDGSFFLYSKLTVDKSRWQQGNVFSCSVMHEALHNRFTQKSLSLSPGGSPGAPTSSSTKKTQLQLEHLLLDLQMILNGINNYKNPKLTAMLTAKFAMPKKATELKHLQCLEEALKPLEEVLNLAQSKNFHLRPRDLISNINVIVLELKGSETTFMCEYADETATIVEFLNRWITFAQSIISTLT
chain 2: DKTHTCPPCPAPELLGGPSVFLFPPKPKDTLMISRTPEVTCVVVDVSHEDPEVKFNWYVDGVEVHNAKTKPREEQYASTYRVVSVLTVLHQDWLNGKEYKCKVSNKALPAPIEKTISKAKGQPREPQVCTLPPSRDELTKNQVSLSCAVKGFYPSDIAVEWESNGQPENNYKTTPPVLDSDGSFFLVSKLTVDKSRWQQGNVFSCSVMHEALHNHYTQMPYDLYHPNFMLTQPHSVSESPGKTVTISCTRSSGSIASNYVQWYQQRPGSSPTTVIYEDNQRPSGVPDRFSGSIDSSSNSASLTISGLKTEDEADYYCQTYDSIDVYFGGGTKLTVLGGGGGSGGGGSGGGGSGGGGSQLQLQESGPGLVKPSQTLSLTCTVSGGSISSGGYYWSWIRQHPGKGLEWIGYIYKSGSAYYSPSLKSRVTISVDTSKNQFSLKLSSVTAADTAVYYCARTPTVTGDWFDPWGRGTLVTVSS
B5: UCM77 (Fc fusion)
chain 1: B4 chain 1
chain 2: B1 chain 2 with V218R, P219A, L220A, S221A, L222V, Y223K, G225P
B6: UCM78 (Fc fusion)
chain 1: B1 chain 1
chain 2: B1 chain 2 with V218Q, P219R, L220P, S221L, L222A, Y223L, S224W, G225R, G226S
B7: UCM79 (Fc fusion)
chain 1: B1 chain 1
chain 2: DKTHTCPPCPAPELLGGPSVFLFPPKPKDTLMISRTPEVTCVVVDVSHEDPEVKFNWYVDGVEVHNAKTKPREEQYASTYRVVSVLTVLHQDWLNGKEYKCKVSNKALPAPIEKTISKAKGQPREPQVCTLPPSRDELTKNQVSLSCAVKGFYPSDIAVEWESNGQPENNYKTTPPVLDSDGSFFLVSKLTVDKSRWQQGNVFSCSVMHEALHNHYTAPAGLIVPYN

Target: T1, human FcRn (human, UniProt P55899 24-297; P61769 21-119)
T1 construct: also called hFcRn
T1 sequence (P55899 24-297 limits assumed, chain 1 of 2): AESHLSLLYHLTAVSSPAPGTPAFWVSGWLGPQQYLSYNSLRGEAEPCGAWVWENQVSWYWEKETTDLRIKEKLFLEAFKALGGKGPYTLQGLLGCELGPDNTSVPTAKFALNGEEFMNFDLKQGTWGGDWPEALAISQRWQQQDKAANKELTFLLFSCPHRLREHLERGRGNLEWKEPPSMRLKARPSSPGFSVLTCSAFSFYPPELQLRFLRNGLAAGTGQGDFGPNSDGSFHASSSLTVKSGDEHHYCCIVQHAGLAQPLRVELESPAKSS
T1 sequence (P61769 21-119 limits assumed, chain 2 of 2): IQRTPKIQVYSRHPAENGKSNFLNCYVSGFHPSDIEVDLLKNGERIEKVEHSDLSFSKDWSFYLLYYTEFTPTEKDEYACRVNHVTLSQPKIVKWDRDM
Assay: SPR, hFcRn as ligand
Description: Surface Plasmon Resonance (SPR) protein binding assay was used to measure FcRn binding.

Binder	Kd [nM]
B1	1490
B2	565
B3	1100
B4	551
B5	312
B6	181
B7	1310
